From patent US20260042834A1, “ANTI-CORTICOTROPIN-RELEASING HORMONE ANTIBODIES AND POLYCYSTIC OVARY SYNDROME” (HBM ALPHA THERAPEUTICS, INC., priority 2022, published 2026)

T1: human UCN1 (Homo sapiens, UniProt P55089)
T1 sequence (P55089 83-122 limits assumed): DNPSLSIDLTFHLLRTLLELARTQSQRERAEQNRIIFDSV


How the values were obtained:
[1] = tested on: restraint-induced ACTH and corticosterone; assay: Wildtype mice restraint-stress model (ACTH and corticosterone); type: in vivo, mouse
Method: 8-10 week old wildtype female C57BL/6 mice were obtained from Charles River Laboratories. Mrap1 KO mice were obtained from Queen Mary University of London, UK. SSR125543A, a small molecule CRHR1 antagonist, was obtained from Axon Medchem (Cat #Axon 1799). Mouse Corticosterone (55-Corms-E01) and adrenocorticotropic hormone (ACTH) ELISA kits (21-ACTHU-E01) were obtained from ALPCO, USA. All procedures were carried out in accordance with the Guide for the Care and Use of Laboratory Animals of the National Institutes of Health. Protocols were approved by Charles River Laboratories Institutional Animal Care and Use Committee (IACUC).
To determine the effect of nonpainful physical restraint upon stress responses, mice were restrained in 50 ml polypropylene ventilated tubes in which the tip was cut off with a razor blade to allow the mouse to breathe easily for 15-20 minutes. A mouse was directed to the open tube and crawled in. A piece of paper towel was put behind the mouse so that it could not back out, and the cap was screwed on. The mouse was placed back in its cage, ventral size down on the bedding. This stressor is not considered painful, as mice are confined to a limited space (in a ventilated restraint tube) but not in an unnatural physical position. The investigator was present in the room during the entire procedure. At the end of the procedure, the mouse was removed by the tail.
On day 1, each mouse was injected intraperitoneally with 20 mg/kg of anti-CRH mAbs, hIgG1 or PBS (5 mice per group). On day 2 or 3, and 14 each mouse was subjected to physical restraint-stress described above for 15 or 20 min. Immediately after restraint-stress, 200 μl of blood was collected in EDTA tubes from the submandibular vein of each mouse. Plasma was separated using a refrigerated centrifuge (4° C. at 500×g for 10 min) and snap-frozen in dry ice for subsequent ACTH and corticosterone ELISA measurement.
On day 1, one half of mice were injected IP with 20 mg/kg of anti-CRH Ab or hIgG1 (5 mice per group). On day 3, the other half of mice were injected IP with 30 mg/kg of SSR125543A or solvent (5 mice each group). Two hours later, four groups of mice were subjected to restraint-stress as described above for 20 min. Immediately after restraint-stress, 200 μl of blood was collected in EDTA tubes from the submandibular vein of each mouse in all four groups. Plasma was separated as described above and snap-frozen in dry ice for subsequent ACTH and corticosterone ELISA measurement. On day 4, SSR125543A or solvent-treated mice were subjected to a second round of restraint stress for 20 min and plasma was collected. Two weeks later, anti-CRH mAb- or hIgG1-treated mice were subjected to physical stress for 20 min followed by plasma collection.

human UCN1 = target: T1, human UCN1; assay: Human UCN1 ELISA binding; details: in words
Method: Streptavidin (Thermo, Cat: 21125) was diluted in PBS to a concentration of 2 μg/ml. 100 μl of diluted streptavidin was added per well to ELISA microplates, and the plates were incubated overnight at 4° C. Plates were blocked with ELISA blocking solution (containing 2% w/v BSA, 0.05% (v/v) Tween-20, pH 7.4 PBS buffer) at 37° C. for 1 hour, and then incubated with 0.5 μg/mL CRH (NT biotin), 0.5 μg/mL CRH (CT biotin), 1 μg/mL human UCN1 (NT biotin), or 1 μg/mL human UCN1 (CT biotin) for 1 hour at 37° C. Plates were then washed and incubated with diluted anti-CRH antibody (Ab) at 15 μg/ml (100 nM, 10 diluted, 8 points) for 1 hour at 37° C. Subsequently, plates were washed and incubated with HRP-conjugated goat anti-human IgG (H+L) antibody (Jackson, Cat: 109-035-088) at 37° C. for 1 hour. […] 100 μL of ELISA stopping solution (Solarbio, Cat #: C1058) was added to terminate the reaction, and the optical density at 450 nm (OD450 nm) was determined by an ELISA plate reader (Molecular Devices, Spectra max 384 plus).
Streptavidin (Thermo, Cat: 21125) was diluted in PBS with a concentration of 2 μg/mL. […] 100 μL of ELISA stopping solution (Solarbio, Cat #: C1058) was then added to terminate the reaction, and the OD450 nm was determined by an ELISA plate reader (Molecular Devices, Spectra max 384 plus).

Row | Molecule | efficacy versus SSR125543A at inhibiting restraint induced ACTH and corticosterone ([1]; doses not given) | duration of the effects ([1]; restraint) | inhibition of ACTH and corticosterone versus SSR125543A ([1]; restraint) | efficacy in reducing plasma ACTH and corticosterone levels versus SSR125543A at 30 mg/kg ([1]; restraint, mAb 20 mg/kg) | binding to human UCN1 peptides in ELISA (human UCN1)
1 | PR302334-24: humanized variant of Series 9 mAb PR302334; VH SEQ ID NO: 275, VL SEQ ID NO: 328 (antibody, V domains shown, PR302334-16 VH, PR302334-24 VH, PR302334-25 VH; PR302334-10 VL, PR302334-24 VL, PR302334-26 VL, PR302334-4 VL) VH: EVQLVESGGGLVKPGGSLRLSCAASGFTFSTYAMSWVRQAPGKGLEWVASIRSGGTTYYPDSVKGRFTISRDNAKNSLYLQMNSLRAEDTAVYYCTRGIDWGQGTTVTVSS VL: DIVMTQSPDSLAVSLGERATINCKASQSVNNDVAWYQQKPGQPPRLLIYYASNRYTGVPDRFSGSGSGTDFTLTISSLQAEDLAVYFCQQDYSSWTFGGGTKVEIK | superior efficacy | at least 17 days | more complete inhibition | more efficacious | –
2 | PR302334-26: humanized variant of Series 9 mAb PR302334; VH SEQ ID NO: 277, VL SEQ ID NO: 328 (antibody, V domains shown, PR302334-18 VH, PR302334-26 VH, PR302334-27 VH; PR302334-10 VL, PR302334-24 VL, PR302334-26 VL, PR302334-4 VL) VH: EVQLVESGGGLVQPGGSLRLSCAASGFTFSTYAMSWVRQAPGKGLEWVASIRSGGTTYYPDSVKGRFTISRDNSKNSLYLQMNSLRAEDTAVYYCTRGIDWGQGTTVTVSS VL: DIVMTQSPDSLAVSLGERATINCKASQSVNNDVAWYQQKPGQPPRLLIYYASNRYTGVPDRFSGSGSGTDFTLTISSLQAEDLAVYFCQQDYSSWTFGGGTKVEIK | – | – | – | – | except for PR302334-26, bound to human UCN1
